In paper doi:10.1101/2021.10.02.462850 (bioRxiv, 2021):

Target: the molecule itself
Assay: crystal structure

B1: RUN1^TIR-E100A (domain or fragment, grapevine, UniProt V9M398 23-198, looked up)
chain: RTITYDVFLSFRGEDTRFNFTDHLYSALGRRGIRTFRDDKLRRGEAIAPELLKAIEESRSSVIVFSENYARSRWCLDALVKIMECHKDKKDPGHAVFPIFYHVDPSHVRKQEGSFGEAFAGYGENLKDKIPRWRTALTEAANLSGWPLQDGYESNQIKEITDSIFRRLKCKRLDAG
B1: binds.
